Data from FireProtDB (doi:10.1111/j.1432-1033.1996.00516.x).

B1: Guanyl-specific ribonuclease T1, P00651 (parent)
chain: MMYSKLLTLTTLLLPTALALPSLVERACDYTCGSNCYSSSDVSTAQAAGYQLHEDGETVGSNSYPHKYNNYEGFDFSVSSPYYEWPILSSGDVYSGGSPGADRVVFNENNQLAGVITHTGASGNNFVECT

Variants of: B1
Details: Aspergillus oryzae (strain ATCC 42149 / RIB 40); pH 5; 10 °C; GdnHCl; Fluorescence; Sodium acetate 0.1 M; reversible: yes; structure 1RN1; whole UniProt chain shown

Variant	ddG of mutation (higher = less stable)	denaturant m value	denaturant midpoint (higher = more stable)
P99V	-1.53 kcal/mol	3.01 kcal/mol/M	3.43 M

Same assay, conditions: Aspergillus oryzae (strain ATCC 42149 / RIB 40); pH 8; 10 °C; GdnHCl; Fluorescence; PIPES 0.1 M; reversible: yes; structure 1RN1; whole UniProt chain shown

Variant	ddG of mutation (higher = less stable)	denaturant m value	denaturant midpoint (higher = more stable)
P99V	-2.44 kcal/mol	3.18 kcal/mol/M	2.44 M

Same assay, conditions: Aspergillus oryzae (strain ATCC 42149 / RIB 40); pH 8; 25 °C; GdnHCl; Fluorescence; PIPES 0.1 M; reversible: yes; structure 1RN1; whole UniProt chain shown

Variant	ddG of mutation (higher = less stable)	denaturant m value	denaturant midpoint (higher = more stable)
P99V	-2.01 kcal/mol	2.7 kcal/mol/M	1.66 M
